According to patent US20240117030A1 (Pfizer, published 2024):
One block for each binder: values may come before it.

Legend:
[1] = biological target: T1, recombinant human TSLP (glycosylated long form) (human, UniProt Q969D9 29-159); experiment: cell-based or functional assay
[2] = biological target: T1, recombinant human TSLP (glycosylated …); experiment: cell-based or functional assay; remark: listed apart in the source
[3] = biological target: T1, recombinant human TSLP (glycosylated …); experiment: cell-based or functional assay; remark: listed apart in the source
[4] = biological target: T1, recombinant human TSLP (glycosylated …); experiment: competition ELISA on coated TSLP; competitor biotinylated TSLP-0001 (69 pM)
human TSLP short form = biological target: T2, human TSLP short form (human, UniProt Q969D9-2 1-63, limits assumed); experiment: SPR (Biacore 8K, 37 C), antibody captured on anti-Fab antibody on a CM5 chip, 300 nM short form TSLP injected (concentration from Example 79)
T2 construct: also called sfTSLP; TSLPsf Avi V5 His 10 Biotin

[5] = biological target: T3, recombinant human IL-12 (p35+p40) (human, UniProt P29459 23-219; P29460 23-328); experiment: SPR (Biacore T200, 37 C), antibody captured by anti-human Fc, cytokine injected
T3 sequence (looked up) 1: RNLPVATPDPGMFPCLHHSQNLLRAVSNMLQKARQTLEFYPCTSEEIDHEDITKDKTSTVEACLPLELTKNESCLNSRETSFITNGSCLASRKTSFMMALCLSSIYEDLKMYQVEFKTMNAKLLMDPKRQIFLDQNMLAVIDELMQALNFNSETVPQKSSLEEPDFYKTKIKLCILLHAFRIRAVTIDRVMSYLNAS
T3 sequence (looked up) 2: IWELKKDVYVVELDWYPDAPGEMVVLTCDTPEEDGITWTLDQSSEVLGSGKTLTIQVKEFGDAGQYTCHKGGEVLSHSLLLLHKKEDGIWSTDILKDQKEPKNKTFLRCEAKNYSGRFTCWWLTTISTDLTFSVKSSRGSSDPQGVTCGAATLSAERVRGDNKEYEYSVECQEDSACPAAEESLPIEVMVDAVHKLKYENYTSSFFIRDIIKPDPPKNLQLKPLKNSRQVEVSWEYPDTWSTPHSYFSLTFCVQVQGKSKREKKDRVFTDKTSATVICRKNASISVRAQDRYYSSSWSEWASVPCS

[6] = biological target: T4, recombinant cynomolgus monkey IL-12 (p35+p40) (cynomolgus monkey, UniProt A0A2K5V4L8 57-253; G7P6S2 23-328); experiment: as above
T4 construct: also called Cyno IL-12
T4 sequence (p35): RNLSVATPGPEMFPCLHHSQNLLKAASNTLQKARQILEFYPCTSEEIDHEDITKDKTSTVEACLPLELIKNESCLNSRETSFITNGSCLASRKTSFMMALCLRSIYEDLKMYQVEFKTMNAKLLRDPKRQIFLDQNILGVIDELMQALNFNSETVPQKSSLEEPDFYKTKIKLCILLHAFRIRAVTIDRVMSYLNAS
T4 sequence (p40): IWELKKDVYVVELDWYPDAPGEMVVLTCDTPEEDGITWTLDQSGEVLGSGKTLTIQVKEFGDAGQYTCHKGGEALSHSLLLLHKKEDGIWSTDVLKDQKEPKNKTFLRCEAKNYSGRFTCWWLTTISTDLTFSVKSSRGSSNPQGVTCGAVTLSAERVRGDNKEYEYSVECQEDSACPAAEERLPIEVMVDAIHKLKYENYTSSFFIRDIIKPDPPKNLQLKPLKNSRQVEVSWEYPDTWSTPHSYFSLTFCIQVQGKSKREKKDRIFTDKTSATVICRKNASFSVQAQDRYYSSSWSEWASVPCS

[7] = biological target: T5, recombinant human IL-23 (p19+p40) (human, UniProt Q9NPF7 20-189; P29460 23-328); experiment: as above
T5 sequence (looked up) 1: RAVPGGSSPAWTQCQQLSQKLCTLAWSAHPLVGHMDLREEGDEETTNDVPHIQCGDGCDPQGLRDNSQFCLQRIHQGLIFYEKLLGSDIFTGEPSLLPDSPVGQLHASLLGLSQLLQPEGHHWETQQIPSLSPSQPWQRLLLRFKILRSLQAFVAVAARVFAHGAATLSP
T5 sequence (looked up) 2: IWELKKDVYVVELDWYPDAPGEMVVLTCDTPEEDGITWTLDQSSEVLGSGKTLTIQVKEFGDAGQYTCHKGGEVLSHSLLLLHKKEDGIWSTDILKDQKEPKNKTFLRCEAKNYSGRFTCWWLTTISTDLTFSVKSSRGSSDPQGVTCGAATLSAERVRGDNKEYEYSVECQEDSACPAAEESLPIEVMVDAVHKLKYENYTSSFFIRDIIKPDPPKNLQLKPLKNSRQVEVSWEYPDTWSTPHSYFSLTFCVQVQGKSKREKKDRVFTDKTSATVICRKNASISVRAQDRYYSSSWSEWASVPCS

[8] = biological target: T6, recombinant cynomolgus monkey IL-23 (p19+p40) (cynomolgus monkey, UniProt H6WS56 20-189; G7P6S2 23-328); experiment: as above
T6 construct: also called Cyno IL-23
T6 sequence (p19): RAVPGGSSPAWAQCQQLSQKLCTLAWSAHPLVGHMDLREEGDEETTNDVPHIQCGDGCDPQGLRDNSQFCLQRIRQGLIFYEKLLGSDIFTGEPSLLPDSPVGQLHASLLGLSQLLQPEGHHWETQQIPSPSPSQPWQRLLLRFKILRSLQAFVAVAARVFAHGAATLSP
T6 sequence (p40): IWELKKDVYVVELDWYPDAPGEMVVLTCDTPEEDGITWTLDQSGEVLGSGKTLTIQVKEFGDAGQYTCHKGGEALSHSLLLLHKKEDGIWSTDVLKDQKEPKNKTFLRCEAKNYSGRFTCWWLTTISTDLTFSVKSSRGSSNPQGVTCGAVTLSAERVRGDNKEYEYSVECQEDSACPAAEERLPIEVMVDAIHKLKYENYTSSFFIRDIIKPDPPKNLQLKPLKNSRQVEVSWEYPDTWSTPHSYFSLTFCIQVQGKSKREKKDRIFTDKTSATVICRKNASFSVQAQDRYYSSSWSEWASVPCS

[9] = biological target: T7, recombinant human IL-33 (R&D Systems 3625-IL) (human, UniProt O95760 112-270, limits assumed); experiment: cell-based or functional assay
T7 sequence (looked up): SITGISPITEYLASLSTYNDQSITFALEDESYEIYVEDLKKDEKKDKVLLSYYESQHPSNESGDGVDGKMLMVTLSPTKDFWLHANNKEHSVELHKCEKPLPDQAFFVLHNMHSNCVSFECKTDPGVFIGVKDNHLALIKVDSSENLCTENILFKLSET

[10] = biological target: T8, cynomolgus monkey IL-33 (Pfizer) (cynomolgus monkey, UniProt A0A2K5W3I1 112-269); experiment: cell-based or functional assay
T8 sequence: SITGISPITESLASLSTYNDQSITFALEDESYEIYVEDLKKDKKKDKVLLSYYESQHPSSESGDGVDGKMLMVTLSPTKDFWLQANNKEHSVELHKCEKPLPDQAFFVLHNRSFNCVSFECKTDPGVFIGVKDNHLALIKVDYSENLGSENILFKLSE

[11] = biological target: T7, recombinant human IL-33 (R&D Systems …); experiment: cell-based or functional assay; remark: listed apart in the source
human IL-4R alpha [12] = biological target: T9, human IL-4R alpha (human, UniProt P24394 26-825); experiment: cell-based or functional assay
human IL-4R alpha [13] = biological target: T9, human IL-4R alpha; experiment: cell-based or functional assay; remark: listed apart in the source

a-TSLP bioassay (IC50, pM) [1]: 24.6 pM
a-TSLP TARC bioassay (fold change to TSLP-0001) [2]: 0.9 fold
anti-hTSLP TARC bioactivity (fold change to TSLP-0001) [3]: 0.9 fold
IC50 [4]: 0.87 nM
B1: TSLP-0100 (antibody, human IgG1, V domains shown)
VH: QMQLVESGGGVVQPGRSLRLSCAASGFTFRTYGMHWVRQAPGKGLEWVAVIWYDGSNKHYADSVKGRFTISRDNSKNTLYLQMNSLRAEDTAVYYCARAPQWELVHEAFDIWGQGTMVTVSS
VL: SYVLTQPPSVSVAPGQTARITCGGNNLGSKSVHWYQQKPGQAPVLVVYDDSDRPSWIPERFSGSNSGNTATLTISRGEAGDEADYYCQVWDSSSDHVVFGGGTKLTVLG
notes: also called IL413TSLP-0100

binding result (human TSLP short form): no binding (tested: 300 nM)
B2: TSLP-0875 (antibody, human IgG1, lambda, V domains shown)
VH: QMQLVESGGGVVQPGRSLRLSCAASGFTFRTYGMHWVRQAPGKGLEWVAVIWYDGSNKHYADSVKGRFTISRDNSKNTLYLQMNSLRAEDTAVYYCARAPQWYLVHEAFDIWGQGTMVTVSS
VL: SYVLTQPPSVSVAPGQTARITCGGNNLGSKSVHWYQQKPGQAPVLVVYDDKDRPSWIPERFSGSNSGNTATLTISRGEAGDEADYYCQVWDSKSDHVVFGGGTKLTVLG

Kd [5]: 0.156 nM
Kd [6]: 0.368 nM
Kd [7]: 0.16 nM
Kd [8]: 0.317 nM
B3: p40-0003 (antibody, human IgG1, kappa, V domains shown)
VH: EVQLVQSGAEVKKPGESLKISCKGSGYSFTTYWLGWVRQMPGKGLDWIGIMSPVDSDIRYSPSFQGQVTMSVDKSITTAYLQWNSLKASDTAMYYCARRRPGQGYFDFWGQGTLVTVSS
VL: DIQMTQSPSSLSASVGDRVTITCRASQGISSWLAWYQQKPEKAPKSLIYAASSLQSGVPSRFSGSGSGTDFTLTISSLQPEDFATYYCQQYNIYPYTFGQGTKLEIKR
notes: also called p40 mAb; ustekinumab (C230) variable regions on human IgG1 effector-null

Continued, binder first:

B4: IL13433-1258 (antibody)
heavy: EVQLVESGGGLVQPGGSLRLSCAASGFTFSSYWMYWVRQAPGKGLEWVAAITPNAGEDYYPESVKGRFTISRDNAKNSLYLQMNSLRAEDTAVYYCARGQYYYTKYSLGYWGQGTLVTVSSASTKGPSVFPLAPSSKSTSGGTAALGCLVKDYFPEPVTVSWNSGALTSGVHTFPAVLQSSGLYSLSSVVTVPSSSLGTQTYICNVNHKPSNTKVDKKVEPKSCRKTHTCPPCPAPEAAGAPSVFLFPPKPKDTLMISRTPEVTCVVVDVSHEDPEVKFNWYVDGVEVHNAKTKPREEQYNSTYRVVSVLTVLHQDWLNGKEYKCKVSNKALPAPIEKTISKAKGQPREPQVYTLPPSREEMTKNQVSLTCLVKGFYPSDIAVEWESNGQPENNYKTTPPVLDSDGSFFLYSRLTVDKSRWQQGNVFSCSVLHEALHSHYTQKSLSLSPGK
light 1: DIQMTQSPSSLSASVGDRVTITCRASQPIHNHLDWYQQKPGKAPKLLIYFGKNLQEGVPSRFSGSGSGTDFTLTISSLQPEDFATYYCFQYKKGWSFGGGTKVEIKRTVAAPSVFIFPPSDEQLKSGTASVVCLLNNFYPREAKVQWKVDNALQSGNSQESVTEQDSKDSTYSLSSTLTLSKADYEKHKVYACEVTHQGLSSPVTKSFNRGEC
chain 1: DIQMTQSPSSLSASVGDRVTITCKASESVDHFGWSLVHWYQQKPGKAPKLLIYRASNLESGVPSRFSGSGSGTDFTLTISSLQPEDFATYYCQQSNEDPWTFGGGTKVEIKRTVAAPSVFIFPPSDEQLKSGTASVVCLLNNFYPREAKVQWKVDNALQSGNSQESVTEQDSKDSTYSLSSTLTLSKADYEKHKVYACEVTHQGLSSPVTKSFNRGECGGGGSEVTLRESGPALVKPTQTLTLTCTFSGFSLSNFGEGLSWIRQPPGKGLEWLAHIYWDDDKRYNPSLKSRLTISKDTSRNQVVLTMTNMDPVDTATYYCARRETVFYWYFDVWGQGTTVTVSSASTKGPSVFPLAPSSKSTSGGTAALGCLVKDYFPEPVTVSWNSGALTSGVHTFPAVLQSSGLYSLSSVVTVPSSSLGTQTYICNVNHKPSNTKVDKKVEPKSCEKTHTCPPCPAPEAAGAPSVFLFPPKPKDTLMISRTPEVTCVVVDVSHEDPEVKFNWYVDGVEVHNAKTKPREEQYNSTYRVVSVLTVLHQDWLNGKEYKCKVSNKALPAPIEKTISKAKGQPREPQVYTLPPSREEMTKNQVSLTCEVKGFYPSDIAVEWESNGQPENNYKTTPPVLDSDGSFFLYSKLTVDKSRWQQGNVFSCSVLHEALHSHYTQKSLSLSPGK
light 2: DIQMTQSPSSLSASVGDRVTITCRASQSVDEEGDSYMNWYQQKPGKAPKLLIYAASNLESGVPSRFSGSGSGTDFTLTISSLQPEDFATYYCQQSNKDPPTFGGGTKVEIKRTVAAPSVFIFPPSDEQLKSGTASVVCLLNNFYPREAKVQWKVDNALQSGNSQESVTEQDSKDSTYSLSSTLTLSKADYEKHKVYACEVTHQGLSSPVTKSFNRGEC
chain 2: EVQLVESGGGLVQPGGSLRLSCAASGFTFSSYAMSWVRQAPGKGLEWVASISSGDTTYYPDSVKGRFTISRDNAKNSLYLQMNSLRAEDTAVYYCARNEGYYFGLTLWGQGTLVTVSSASTKGPSVFPLAPSSKSTSGGTAALGCLVKDYFPEPVTVSWNSGALTSGVHTFPAVLQSSGLYSLSSVVTVPSSSLGTQTYICNVNHKPSNTKVDKKVEPKSC
IC50, IL-33-induced SEAP activity in HEK-Blue IL-33 SEAP cells (median) [9]: 0.0134 nM
IC50, IL-33-induced SEAP activity in HEK-Blue IL-33 SEAP cells (median) [10]: 0.274 nM
IC50 (pM) HEK-Blue IL-33 SEAP (mean) [11]: 13.4 pM

B5: Dupilumab (antibody, V domains shown)
VH: EVQLVESGGGLEQPGGSLRLSCAGSGFTFRDYAMTWVRQAPGKGLEWVSSISGSGGNTYYADSVKGRFTISRDNSKNTLYLQMNSLRAEDTAVYYCAKDRLSITIRPRYYGLDVWGQGTTVTVSS
VL: DIVMTQSPLSLPVTPGEPASISCRSSQSLLYSIGYNYLDWYLQKSGQSPQLLIYLGSNRASGVPDRFSGSGSGTDFTLKISRVEAEDVGFYYCMQALQTPYTFGQGTKLEIKR
IC50 (median), IL-4 induced CD23 expression on human monocytes (human IL-4R alpha [12]): 0.104 nM
IC50 (median), IL-13 induced CD23 expression on human monocytes (human IL-4R alpha [13]): 0.0932 nM
